Data: publication PMC7901536 (Arteriosclerosis, thrombosis, and vascular biology, 2021)
Each block holds one molecule with its values, some of them ahead of it.

Tests used:
[1] = target: dimeric GPVI (GPVI extracellular domain fused by IgG-Fc) (UniProt Q9HCN6); assay: MST; CRP-XL titrated into FITC-labelled GPVI monomer or dimer; read-out is the fall of the initial fluorescence (quenching); 1:1 model; hypothetical KD on the monomeric-equivalent molar concentration of CRP-XL
[2] = target: monomeric GPVI (His-tagged GPVI extracellular domain) (UniProt Q9HCN6); assay: as above
[3] = target: non-polymerising (NP) fibrin (UniProt P02671); assay: SPR; NP-fibrinogen immobilised, then converted to fibrin with thrombin; GPVI dimer as analyte (additional SPR experiments in the supplemental methods)
[4] = target: recombinant non-polymerising (NP) fibrinogen (UniProt P02671); assay: as above
[5] = target: recombinant fibrinogen αC fragment, C-terminal globular domain (Aα 368-610); assay: SPR; biotinylated αC fragments Aα 221-391 (80 RU), 368-610 (120 RU), 221-610 (180 RU) on SA chip; dimeric GPVI as analyte up to 20 μM; 25 °C; 1:1 Langmuir
[6] = target: recombinant fibrinogen αC fragment, full-length (Aα 221-610); assay: as above
[7] = target: T1, dimeric GPVI (GPVI extracellular domain fused by IgG-Fc), Q9HCN6; assay: SPR; monomeric and dimeric GPVI immobilised as ligands; X-, D-, E-fragment or D-dimer as analytes up to 40 μM; 1:1 Langmuir
T1 chain: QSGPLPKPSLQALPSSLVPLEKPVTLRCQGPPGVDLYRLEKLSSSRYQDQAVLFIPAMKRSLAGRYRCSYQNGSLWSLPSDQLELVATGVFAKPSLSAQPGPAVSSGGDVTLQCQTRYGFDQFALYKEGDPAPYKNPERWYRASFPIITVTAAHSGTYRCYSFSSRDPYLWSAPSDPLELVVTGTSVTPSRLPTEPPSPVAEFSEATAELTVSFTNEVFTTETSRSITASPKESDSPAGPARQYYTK

[8] = target: T2, monomeric GPVI (His-tagged GPVI extracellular domain), Q9HCN6; assay: as above
T2 chain: T1 chain

[9] = target: T1, dimeric GPVI (GPVI extracellular domain …); assay: MST; fibrin(ogen) or fragments titrated into FITC-labelled GPVI monomer or dimer (10 μl of 50 nM mixed 1:1); 20 mM HEPES pH 7.5, 50 mM NaCl; 23 °C; 1:1 model
[10] = target: T3, dimeric GPVI (GPVI extracellular domain fused by IgG-Fc) (UniProt Q9HCN6 21-267, FITC label (in MST); biotin via NHS-LC-biotin (when immobilised in SPR)); assay: SPR; monomeric and dimeric GPVI immobilised as ligands; X-, D-, E-fragment or D-dimer as analytes up to 40 μM; 1:1 Langmuir; details: both partners purified
T3 sequence (looked up): T1 chain

[11] = target: T3, dimeric GPVI (GPVI extracellular domain …); assay: MST; fibrin(ogen) or fragments titrated into FITC-labelled GPVI monomer or dimer (10 μl of 50 nM mixed 1:1); 20 mM HEPES pH 7.5, 50 mM NaCl; 23 °C; 1:1 model; details: both partners purified

Kd [1]: 0.603 µM
Kd [2]: 5 µM
Molecule: cross linked collagen-related peptide (CRP-XL)

Kd [3]: 0.086 µM
Kd [4]: 0.127 µM
Kd [5]: 2.3 µM
Kd [6]: 0.604 µM
Molecule: dimeric GPVI (GPVI extracellular domain fused by IgG-Fc) (from UniProt Q9HCN6 21-267) (Fc fusion)

Kd [7]: 9 µM
Kd [8]: > 1000 µM
Kd [9]: > 2 µM
B1: fibrinogen X-fragment (domain or fragment)
chain 1: ADSGEGDFLAEGGGVRGPRVVERHQSACKDSDWPFCSDEDWNYKCPSGCRMKGLIDEVNQDFTNRINKLKNSLFEYQKNNKDSHSLTTNIMEILRGDFSSANNRDNTYNRVSEDLRSRIEVLKRKVIEKVQHIQLLQKNVRAQLVDMKRLEVDIDIKIRSCRGSCSRALAREVDLKDYEDQQKQLEQVIAKDLLPSRDRQHLPLIKMKPVPDLVPGNFK
chain 2: QGVNDNEEGFFSARGHRPLDKKREEAPSLRPAPPPISGGGYRARPAKAAATQKKVERKAPDAGGCLHADPDLGVLCPTGCQLQEALLQQERPIRNSVDELNNNVEAVSQTSSSSFQYMYLLKDLWQKRQKQVKDNENVVNEYSSELEKHQLYIDETVNSNIPTNLRVLRSILENLRSKIQKLESDVSAQMEYCRTPCTVSCNIPVVSGKECEEIIRKGGETSEMYLIQPDSSVKPYRVYCDMNTENGGWTVIQNRQDGSVDFGRKWDPYKQGFGNVATNTDGKNYCGLPGEYWLGNDKISQLTRMGPTELLIEMEDWKGDKVKAHYGGFTVQNEANKYQISVNKYRGTAGNALMDGASQLMGENRTMTIHNGMFFSTYDRDNDGWLTSDPRKQCSKEDGGGWWYNRCHAANPNGRYYWGGQYTWDMAKHGTDDGVVWMNWKGSWYSMRKMSMKIRPFFPQQ
chain 3: YVATRDNCCILDERFGSYCPTTCGIADFLSTYQTKVDKDLQSLEDILHQVENKTSEVKQLIKAIQLTYNPDESSKPNMIDAATLKSRKMLEEIMKYEASILTHDSSIRYLQEIYNSNNQKIVNLKEKVAQLEAQCQEPCKDTVQIHDITGKDCQDIANKGAKQSGLYFIKPLKANQQFLVYCEIDGSGNGWTVFQKRLDGSVDFKKNWIQYKEGFGHLSPTGTTEFWLGNEKIHLISTQSAIPYALRVELEDWNGRTSTADYAMFKVGPEADKYRLTYAYFAGGDAGDAFDGFDFGDDPSDKFFTSHNGMQFSTWDNDNDKFEGNCAEQDGSGWWMNKCHAGHLNGVYYQGGTYSKASTPNGYDNGIIWATWKTRWYSMKKTTMKIIPFNRLTIGEGQQHHLGGAK
modifications: not checked

Kd [7]: 26 µM
Kd [9]: > 20 µM
B2: fibrinogen D-fragment (domain or fragment)
chain 1: VSEDLRSRIEVLKRKVIEKVQHIQLLQKNVRAQLVDMKRLEVDIDIKIRSCRGSCSRALAREVDLKDYEDQQKQLEQVIAKDLLPSR
chain 2: DNENVVNEYSSELEKHQLYIDETVNSNIPTNLRVLRSILENLRSKIQKLESDVSAQMEYCRTPCTVSCNIPVVSGKECEEIIRKGGETSEMYLIQPDSSVKPYRVYCDMNTENGGWTVIQNRQDGSVDFGRKWDPYKQGFGNVATNTDGKNYCGLPGEYWLGNDKISQLTRMGPTELLIEMEDWKGDKVKAHYGGFTVQNEANKYQISVNKYRGTAGNALMDGASQLMGENRTMTIHNGMFFSTYDRDNDGWLTSDPRKQCSKEDGGGWWYNRCHAANPNGRYYWGGQYTWDMAKHGTDDGVVWMNWKGSWYSMRKMSMKIRPFFPQQ
chain 3: KMLEEIMKYEASILTHDSSIRYLQEIYNSNNQKIVNLKEKVAQLEAQCQEPCKDTVQIHDITGKDCQDIANKGAKQSGLYFIKPLKANQQFLVYCEIDGSGNGWTVFQKRLDGSVDFKKNWIQYKEGFGHLSPTGTTEFWLGNEKIHLISTQSAIPYALRVELEDWNGRTSTADYAMFKVGPEADKYRLTYAYFAGGDAGDAFDGFDFGDDPSDKFFTSHNGMQFSTWDNDNDKFEGNCAEQDGSGWWMNKCHAGHLNGVYYQGGTYSKASTPNGYDNGIIWATWKTRWYSMKKTTMKIIPFNRLTIGEGQQHHLGGAK
modifications: not checked

Kd [10]: 28 µM
Kd [11]: > 20 µM
B3: D-dimer (degradation product of FXIIIa cross-linked fibrin) (domain or fragment)
chain 1: B2 chain 1
chain 2: B2 chain 2
chain 3: B2 chain 3
modifications: cross-linked by FXIIIa (chain and residues not stated)

Kd [10]: 51 µM
Kd [11]: > 20 µM
B4: fibrinogen E-fragment (domain or fragment)
chain 1: VVERHQSACKDSDWPFCSDEDWNYKCPSGCRMKGLIDEVNQDFTNRINKLKNSLFEYQK
chain 2: KVERKAPDAGGCLHADPDLGVLCPTGCQLQEALLQQERPIRNSVDELNNNVEAVSQTSSSSFQYMYLLK
chain 3: YVATRDNCCILDERFGSYCPTTCGIADFLSTYQTKVDKDLQSLEDILHQVENK
